From patent US20240245805A1 (Orna Therapeutics, Inc., priority 2020, published 2024)

B1: Hepatovirus C (nucleic acid)
DNA: TTCAAAAGCCCCAGCGGGGTTTCATTACCCCGCTGTGGCTTTTGGACTTCCCTAGGATGGGGAAGTAAATTACCATCCTCGCGTTTGCCGTGCGTTAACGGCTACTTTTCTTCTAGCTGTAGAAGTAAAATTCAGCATGTTTTATGTTTGTTTGTCTTGTTTGTTATATACATTTTTACACTCCTACAAATGCACATGAAGAACAGTTTGTAGAGATTAACAAACGCTTAGCTGAACCTAGGTGGTGAATCTAGTAGTAAGATAAGTAGAGGAAGCTATACCTTAAGTTGGTTGGGCCCTCGTGTTTGCTCTATAAACAAAACCAAGTGAGTAGAGTGGATGAACAGTACTAAATCCCTGAGTACAGGGAACCTCACAGGTGTGATACACTTATGTCTATGTGACCTGGTTGGAGGTTGGGCGTGCCCTATGATACTGGAGTGGGAGATCTTTTGGGGAACCCACGTTTTCACACTGCCTGATAGGGTCTTGCCGAGAGACTCACTTGTTTCGGCTGTACTTGTAAC
modifications: Hepatovirus C
B2: HAV FH1 (nucleic acid)
chain: CTTGATACCTCACCGCCGTTTGCCTAGGCTATAGGCTAAATTTCCCTTTCCCTGTCCTTTCCCTATTTCCTTTTGTTTTGTTTGTAAATATTAATTCCTGCAGGTTCAGGGTTCTTTAATCTGTTTCTCTATAAGAACACTCAATTTTCACGCTTTCTGTCTCCTTTCTTCCAGGGCTCTCCCCTTGCCCTAGGCTCTGGCCGTTGCGCCCGGCGGGGTCAACTCCATGATTAGCATGGAGCTGTAGGAGTCTAAATTGGGGACGCAGATGTTTGGGACGTCGCCTTGCAGTGTTAACTTGGCTTTCATGAACCTCTTTGATCTTCCACAAGGGGTAGGCTACGGGTGAAACCTCTTAGGCTAATACTTCTATGAAGAGATGCCTTGGATAGGGTAACAGCGGCGGATATTGGTGAGTTGTTAAGACAAAAACCATTCAACGCCGAAGGACTGGCTCTCATCCAGTGGATGCATTGAGGGAATTGATTGTCAGGGCTGTCTCTAGGTTTAATCTCAGACCTCTCTGTGCTTAGGGCAAACACTATTTGGCCTTAAATGGGATCCTGTGAGAGGGGGTCCCTCCATTGACAGCTGGACTGTTCTTTGGGGCCTTATGTGGTGTTTGCCTCTGAGGTACTCAGGGGCATTTAGGTTTTTCCTCATTCTTAAACAATA
modifications: lipid formulation; Hepatovirus A
B3: HAV HM175 (nucleic acid)
chain: CGCCGTTTGCCTAGGCTATAGGCTAAATTTTCCCTTTCCCTTTTCCCTTTCCTATTCCCTTTGTTTTGCTTGTAAATATTGATTTGTAAATATTGATTCCTGCAGGTTCAGGGTTCTTAAATCTGTTTCTCTATAAGAACACTCATTTCACGCTTTCTGTCTTCTTTCTTCCAGGGCTCTCCCCTTGCCCTAGGCTCTGGCCGTTGCGCCCGGCGGGGTCAACTCCATGATTAGCATGGAGCTGTAGGAGTCTAAATTGGGGACACAGATGTTTGGAACGTCACCTTGCAGTGTTAACTTGGCTTTCATGAATCTCTTTGATCTTCCACAAGGGGTAGGCTACGGGTGAAACCTCTTAGGCTAATACTTCTATGAAGAGATGCCTTGGATAGGGTAACAGCGGCGGATATTGGTGAGTTGTTAAGACAAAAACCATTCAACGCCGGAGGACTGACTCTCATCCAGTGGATGCATTGAGTGGATTGACTGTCGGGGCTGTCTTTAGGCTTAATTCCAGACCTCTCTGTGCTTGGGGCAAACATCATTTGGCCTTAAATGGGATTCTGTGAGAGGGGATCCCTCCATTGCCAGCTGGACTGTTCTTTGGGGCCTTATGTGGTGTTTGCCGCTGAGGTACTCAGGGGCATTTAGGTTTTTCCTCATTCTTAAATAATA
modifications: lipid formulation; Hepatovirus A
B4: Limnipivirus C (nucleic acid)
DNA: GTTTCTGAGCACTGGTAAGAGCTTAGACAAACGTTTTTAAAATTTATTTTCTCTGCAACTTTTGTTTGTGTTTATTTTTATTTGTTAATTTTGCGCCTAAGCATTTGTTGCGAAGTATTTGATTCATTAGTAATATTACTTATTGTTTATTTAGATGGTATTCAAAGTGGTGGGAGTATCGAACCCAAGCGTCGTATGCTATCTCCTTGAACAATTTTTAATCATTGCGAAGTGATCATTGAAAAGGATAGGTGTTTAAGAACTCAAAGAGTGTTAATAATGTTGGGTGACAGGTGTCCCCATAGAATTTATTAACATGATTTGGACTGGTTATCTAGTAAGAAGAACCATCGAACGCACGAGCGAGCATTGCTTGCGGGGCAGTTACCCTGCGTCGATGTAAGTGTGTACCGGGGGGTGCACATGTTGATTCTTTATGGCCTGATAGGGTGCGTCATTCGCGCCTAGATAATTAGTATAATGCGAATGGAATAAATTTAC
modifications: lipid formulation; Limnipivirus C
B5: Orivirus (nucleic acid, listed as Orivirus sp.)
DNA: GGTCCCAGGCCAATATTCTTCGTAAGGCTTGGTTCCAATTTTCCACCACTCGTGTTTGGGTTCTGGCCTATGGTACCCAGAGGGGCGGTTTGGGGGAATTAACTCCCCCTCCCCTGTGGTCCTATACCACCCCACACCTCTGTGGGCTTTCTTTACTATCTTCTTGTTTTCCGACTTTTAAACACTAGGCAGGCGCGCCTAGTCATACACCGCCCGGCTGGTCTTTCCAGCTCTTGTGGGCGGTGCGCGCTGGTCCATCGTGCCCAGCGACATAGCACCTTGTGGACACCTCCGAACGCCCTCCCCTGTATGGGGTGGTGCCCAGGGGTTTCAGTGTGGTGACACACTCCCTGGGGCCCGAAAGGCTAGTGTGCAACAGGTGAGGTACAGCCAGCTGCCCCCGTGGCTGGAGGGACCAAGCTTGTGAAGCACACCTCACCTTCTTGGGGGTGGGCTAGTAAGTGGTGAAAGCATAGTGTCCGTGTCGCTGGCCAACACTTTGGGTCAAGTCCAGCCACTCAGTGAGTAGATGCCCAGGAGGTACCCCTAGTGGATCTGACTTGGGGCCTGTTACTTAATGCAGGTTAAAAACTATGAAAGCTGAGTAGTGTAGCCCGGCTGGTGGCTTCTCTTCCTTATTCATTCTATTTTATGGTGACAAACGCAACTGAAGCC
modifications: lipid formulation
B6: Fipivirus C (nucleic acid)
chain: CGCGGTTAAACCCGCGCAACCTTCTTTCAGCCGCGTCTGAGTAGCGCGGTTAGTCCTGATACACAGTTTCCTGTTGGGTACTGTGTCTTCGGGTGAATGCTCTTGTGTGAATGTTTTAGGCTGTTTAAGGGAAGCGTTTCCCCGTGCGCTGTGAGGGTTTCTCACGCTCTTTCGGGGTGCAGTCTCTTCTGTTGTTCATTAAGATGTATGGATGCACTGTTGTGAAGGATTTGTGAACTGGGGATCGACACCCCGTGAGGGGTGCCCCAGTGTCCATAGGAGTTTGCTGGAGAGGTGTGTTGCTGTAGTGACTATCCGTGACCTGGCATTCTAAGGTGTTGACCCCAACCTGTGAGGGTCTGGATCGCAGTGTTGAAGTGCTTTGGAGGGTTCAATGGGGTTTCTGTAGTGGATATTATGTGCTTGACGACTACTGGTACGAGTGTATTGGGGGTCTACATGTGTGA
modifications: lipid formulation; Fipivirus C
B7: Parechovirus D (nucleic acid)
DNA: ACATGGGGCAGGTGTGCTGTGCCAAGAGCAACACTACGGTGGCCGAGCCGATGGTTCGTCACCACGTAGTAGGACTCCGTAGTGCTTGGTTACGGCGGACGTAAGTCAGTTGAGTGATGTCTAAGTGGCAAACCATGAGTACATGGTAACCTTGTGTGGACTCGCGGGACGGAATTTCCTATCCCATTGACTCCTTGTAGCAAGGTGGGTATACCCAACCACAATGGCAGCACCCTGGGTGGGAACCCAGGGGCCTGGATTAGTATCCAGTCACACAGCCTGATAGGGTGGCGGCTCAGCCACTGACCAGCGTCTCTAAATAATTGTGAGCTGTTCATGCACC
modifications: lipid formulation; Parechovirus D
B8: Fipivirus A (nucleic acid)
chain: TGCGGGTAAACTCCCGCATGTGTGAATGAGGCGATGTCCCAGGAACTAACTGCCGATCCTGGTTTTAACTACGATCCGTATTTGTTACTAATGCGATATCCCCCCATTGTTTGCCTCCATGTTGTTTTCAACGCTTTTGGCCTTGAGTGTTATCAAGTGTTTTAGCGACATAGTGGGAAGCTACGGCTGCGTCCCCATTTTTGAGTGGCGACCCAGTTTTAGTGGCCACTCTGTCCCTGAACTGCGCTATAATGTGAATTTATGTTCACAAAAACGGACTGATGTAACTGTTAATGACTAAGGAATAGTACCTCACTGAAGTATCAAGACCCCGTTCGAGCGGTGTACATATATGGATGGAAACCTTGTCTGAGTCATCTCGAATACTAATCAATGAGGGATGTCGAGTAAGCATATCATGAACCACATAGAATAGTGGGGTTTCGGGGTTAGAGGCTCTCTGCAGCAATGTATCTCTAACACCATGGCCGAAATGAGAGATAGAGACCACGATGTTTGTGTGTAAGTAATGATGTGTGGAAAGAAAATTCTGAATGTTGGTATGATATCAGTCTAAGGGGAGTGGCTCACCTAAGAGCTACCCAAACATTTCACAGCAGACAACATAACGTACTGAGAGTAGTTGGAAGGTTCCAGAAATCAGT
modifications: lipid formulation; Fipivirus A
B9: Fipivirus E (nucleic acid)
chain: CTCTTCCGATCTTGGGGGTTCGCCCCCATGTCTCATTTCAACTAGCCGTGTGTCTAGTTAACGCACCGCCTCACCCTGGTCGTTATCGGGTCGGTTCTTGCGACCGTTAGATCGTGAGCGTTTCTGAGGATCAGTTCGTATAAGTTCTCCGGTGTGGCGACCGTAAAATCGTCACGTCCCATGCAATAGATGACGTTAAACTCGTTTGCCAGTTACATAAAGGAATGTTGTTACTTTTAAATTGTCTGTTACATTTAACATCTTGCCAGTATGATGCTACTGTACACTACGGGTGTAGGAACCTTGTAGTGTGACGTATCACTCATATGTGGATGGGTGCTCCAGACCTTTATGGAAGCTCTCAGTTAGTAGTGATCCTTGACTTCATTGAGCCCTGGTAACAGTGGAAGTCAAGATGTATATGTTGCTCAACACACTTCGGTGCTACGAAGCTGTTTGTGGAAGTACTGGCGAGGTTCATTCTGAATCATATGTTTGTCACATAGTCAGGGAGTGCCGTCGCTTACGACGGACCCTTTTTCTTTATAATTACAAATCTGTGTCTCAAGTGTTGTTGGCTGGTTTTCTTCTTCTGTTTTCATTGTTCATATATATACGTCAGAGTGAAAGACTCGGTATATACAAAACTGATCCAGA
modifications: lipid formulation; Fipivirus E

Test system: HEK293 cells
Format: cell-based, human
Conditions: circular RNA encoding Gluc with the listed IRES (UTR truncated to 675 nt) transfected into HEK293 cells; supernatant after 24 hours

Row | Molecule | Expression (luminescence from secreted Gluc protein)
1 | B1 | 5.08E+05
2 | B2 | 1.24E+05
3 | B3 | 4.96E+05
4 | B4 | 1.35E+05
5 | B5 | 6.09E+05
6 | B6 | 1.09E+05
7 | B7 | 3.10E+05
8 | B8 | 2.69E+05
9 | B9 | 1.10E+05
